The text below walks through data of publication PMC2729104 (Nature immunology, 2009).

The target of assay [1] is protease fragment Bb of factor B (from plasma-purified FB) (human, UniProt P00751 260-764). Put plainly: pull-down.
Assay [2] deals with protease fragment Bb of factor B (from recombinant FB) (human, UniProt P00751 260-764). Put plainly: crystal structure.
Chain of protease fragment Bb of factor B (from recombinant FB) (P00751 260-764): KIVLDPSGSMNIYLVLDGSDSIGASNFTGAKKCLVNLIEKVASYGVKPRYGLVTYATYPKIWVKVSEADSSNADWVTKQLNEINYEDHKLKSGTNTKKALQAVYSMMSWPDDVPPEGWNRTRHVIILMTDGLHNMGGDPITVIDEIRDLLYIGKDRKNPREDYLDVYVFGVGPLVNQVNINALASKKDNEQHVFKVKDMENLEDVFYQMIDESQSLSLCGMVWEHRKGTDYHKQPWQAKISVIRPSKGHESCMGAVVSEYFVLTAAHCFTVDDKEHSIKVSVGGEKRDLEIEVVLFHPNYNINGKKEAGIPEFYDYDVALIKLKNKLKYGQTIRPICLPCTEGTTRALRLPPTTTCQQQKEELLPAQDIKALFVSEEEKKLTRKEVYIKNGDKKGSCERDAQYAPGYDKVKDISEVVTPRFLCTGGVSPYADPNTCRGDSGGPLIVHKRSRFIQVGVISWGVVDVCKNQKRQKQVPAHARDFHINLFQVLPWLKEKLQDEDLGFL

Chain of protease fragment Bb of factor B (from plasma-purified FB) (P00751 260-764): as above

B1: SCIN protein with an N-terminal His6 tag (natural protein, Staphylococcus aureus)
chain: STSLPTSNEYQNEKLANELKSLLDELNVNELATGSLNTYYKRTIKISGQKAMYALKSKDFKKMSEAKYQLQKIYNEIDEALKSKY
Take B1: the binding result in assay [1] and in assay [2] was “binds” each time.
